# Experimental data as given in patent US20180214548A1 (SHANGHAI YUNYI HEALTHCARE AND TECHNOLOGY, published 2018).
# B1: chimeric anti-PD-1 antibody 21G8F11 (antibody, V domains shown)
# VH: EVQLLESGGGLAQPGGSLRLSCAASGFSFNTYLMHWVRQAPGKGLEWVSAISGGGGNTYYADSVKGRFTISRDNSKNTLYLQMNSLRAEDTAVYYCAKENRIPVAPFDYWGQGTLVTVSS
# VL: DIQMTQSPSTLSASVGDRVTITCRASQSISTWLAWYQQKPGKAPKLLIYKASSLESGVPSRFSGSGSGTEFTLTISSLQPDDLATYYCQQYNSFSWTFGQGTKVEIK
# B2: chimeric anti-PD-1 antibody 76G5B3 (antibody, V domains shown)
# VH: QVQLVESGGGVVQPGRSLRLSCAASGFTFSDYGFHWVRQAPGKGLEWVAVIWYDGSNEYYTDSVKGRFTISRDNSKNTLYLQMNSLRAEDTAMYFCVVNPFDYWGQGTLVTVSS
# VL: DIQMTQSPSSLSAFVGDRVTITCRASQGINHYLAWYQQKPGKAPNLLILAASTLLSGVPSRFGGRGSGTDFTLIISSLQPEDVATYYCQKYDSAPYTFGQGTKLEIK
# B3: chimeric anti-PD-1 antibody 32B5C7 (antibody, V domains shown)
# VH: EVQLLESGGGLVQPGGSLRLSCAASGFTFSSYAMSWVRQAPGKGLEWVSTISGSGGTTYYADSVKGRFTISRDNSKNTLYLQMNSLRAEDTAVYYCTLTGDPDYWGQGTLVTVSS
# VL: EIVLTQSPATLSLSPGERATLSCRASQSVSSYLAWYQQKPGQAPRLLIYDASKRATGIPARFSGSGSGTDFTLTISSLEPEDFAVYYCQQRNNWPLTFGGGTKVEIK
# B4: chimeric anti-PD-1 antibody 226C3A7 (antibody, V domains shown)
# VH: QVQLQQSGPGLVNPSQTLSLTCAISGDSVSSNSGAWNWIRQSPSRGLEWLGRTYYRSKWYNDYGISVQSRITINPDTSKNHFSLQLNSVTPEDTAVYYCARDPYYYGSGSYFDYWGQGTLVTVSS
# VL: EIVMTQSPATLSVSPGERVTLSCRASLSVNSNLAWYQQKPGQAPRLLIYDTSTRATGVPARFSGSGSGTEFTLTISSLQSEDFAVYYCQQYHYWPLTFGGGTKVEIK
# B5: chimeric anti-PD-1 antibody 204C5E12 (antibody, V domains shown)
# VH: QVQLVESGGGVVQPGRSLRLSCAASGFSFSYYGMHWVRQAPGKGLEWVAVIWYDGSNKYYADSVKGRFTISRDNSKNTLYLQMNSLRAEDTAVYYCASGITLVRGADYYYNYDMDVWGQGTTVTVSS
# VL: not shown
# B6: chimeric anti-PD-1 antibody 223G6B5 (antibody, V domains shown)
# VH: QVQLQESGPGLVKPSETLSLTCAVSGHSIRGSYFWGWIRQPPGRGLEWIGSIYHSGSTYTNPSLKSRATISVDTSKNQFSLKLNSVTAADTAVYYCARDLDIATTRDYWGQGTLVTVSS
# VL: DIQLTQSPSFLSASVGDRVTIICRASQGINNYLAWYQQKPGKAPKLLIYAASTLQSGVPSRFSGSGSGTEFTLTISSLQPEDFATYYCQQLDSYPRTFGQGTKVEIKR
# B7: fully human anti-PD-1 antibody 32B5C7 (antibody, human IgG4 S228P, kappa, V domains shown)
# VH: B3 VH
# VL: EIVLTQSPATLSLSPGERATLSCRASQSVSSYLAWYQQKPGQAPRLLIYDASKRATGIPARFSGSGSGTDFTLTISSLEPEDFAVYYCQQRNNWPLTFGGGTKVEIKR
# How the values were obtained:
# [1] = target: T1, human PD-1, full length, on cells (human, UniProt Q15116 25-288); assay: cell-based or functional assay
# [2] = target: T1, human PD-1, full length, on cells; assay: cell-based or functional assay; remark: listed apart in the source
# [3] = target: T1, human PD-1, full length, on cells; assay: cell-based or functional assay; remark: listed apart in the source
# [4] = target: T2, cyno PD-1, full length, on CHO-K1 cells (cyno monkey, UniProt B0LAJ3 25-288); assay: flow cytometry on CHO-K1-cPD-1 cells
# T2 construct: also called CHO-K1-cPD-1; cPD-1
# Text: CHO-K1 cells were stably transfected with pIRES plasmid containing the nucleic acid sequence encoding full length human PD-1 (see Example 2, step 2) to generate CHO-K1 cells stably expressing human PD-1 (herein referred to as CHO-K1-hPD-1 cells). Other CHO-K1 were stably transfected with pIRES plasmid containing the nucleic acid sequence encoding full length cyno PD-1 to generate CHO-K1 cells stably expressing cyno PD-1 (herein referred to as CHO-K1-cPD-1 cells). CHO-K1-hPD-1 and CHO-K1-cPD-1 cells were cultured and expanded in T-75 culture flasks to 90% confluence. The culture media was aspirated, and the cells were washed twice with HBSS (Hanks Balanced Salt Solution, Invitrogen). The cells were treated with enzyme-free cell dissociation solution (Versene solution, Invitrogen) and collected. The cells were then washed twice with HBSS, cell counts were determined, and cells were resuspended with HBSS at 2×10⁶ cells/mL. Goat serum was added to the cell suspension to a final concentration of 1%, and the cells were blocked for 30 minutes on ice and then washed twice with HBSS. The cells were collected after centrifugation and resuspended in FACS buffer (HBSS+1% BSA, v/v) at 2×10⁶ cells/mL. 100 uL of the cell suspension were then added to each well of 96-well plate. 100 uL of purified anti-PD-1 antibodies from Example 2 were added to each well of the 96-well plate and incubated for 2 hours on ice. […] The samples were washed three times with FACS buffer, and 100 uL fixation buffer (4% paraformaldehyde v/v) were added to each well and incubated for 10 minutes. The cells were then washed twice with FACS buffer and resuspended in 100 uL FACS buffer. The mean fluorescence intensity (MFI) was determined using FACS Calibur (BD), and the results are shown in FIGS. 7-8 and in Tables 10-11.
# [5] = target: T1, human PD-1, full length, on cells; assay: cell-based or functional assay; remark: listed apart in the source
# [6] = target: T3, human PD-1^ECD-hFc protein (Immunogen A) (human, UniProt Q15116 25-167); assay: BLI Octet Red 96, biotinylated PD-1ECD-hFc on streptavidin sensor
# T3 construct: also called PD-1-hFc; hPD-1^ECD-hFc; not shown: human IgG Fc fragment (hFc)
# Description: Dissociation constants were determined by Octed red 96 (Fortiebio). The detailed operation and methods were followed according to the specifications of the instrument provided by the manufacturer. Briefly, a streptavidin sensor (SA sensor, Fortiebio) was used for the affinity determination. […] The reaction mixture was further incubated in PBS buffer (pH7.4) containing 0.1% (v/w) BSA and 0.02% (v/v) Tween20 at 30° C. for 5 minutes. […] The affinity, association and dissociation constants were determined using Octet User software, and the results are shown in Table 12.
# [7] = target: T1, human PD-1, full length, on cells; assay: flow cytometry on CHO-K1-hPD-1 cells
# T3 sequence (Q15116 25-167): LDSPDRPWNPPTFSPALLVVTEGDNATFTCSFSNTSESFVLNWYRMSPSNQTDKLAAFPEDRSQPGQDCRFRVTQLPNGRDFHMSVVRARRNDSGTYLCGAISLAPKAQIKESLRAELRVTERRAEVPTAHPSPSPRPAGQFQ
# T1 sequence (Q15116 25-288): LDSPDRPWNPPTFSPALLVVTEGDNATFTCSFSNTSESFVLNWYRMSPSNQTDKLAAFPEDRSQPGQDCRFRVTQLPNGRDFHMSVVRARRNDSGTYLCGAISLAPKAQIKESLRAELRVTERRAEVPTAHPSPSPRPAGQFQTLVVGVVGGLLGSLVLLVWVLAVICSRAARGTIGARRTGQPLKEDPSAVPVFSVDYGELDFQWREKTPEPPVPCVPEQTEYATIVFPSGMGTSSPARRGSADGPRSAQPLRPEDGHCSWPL
# T2 sequence (B0LAJ3 entry or part of it limits assumed): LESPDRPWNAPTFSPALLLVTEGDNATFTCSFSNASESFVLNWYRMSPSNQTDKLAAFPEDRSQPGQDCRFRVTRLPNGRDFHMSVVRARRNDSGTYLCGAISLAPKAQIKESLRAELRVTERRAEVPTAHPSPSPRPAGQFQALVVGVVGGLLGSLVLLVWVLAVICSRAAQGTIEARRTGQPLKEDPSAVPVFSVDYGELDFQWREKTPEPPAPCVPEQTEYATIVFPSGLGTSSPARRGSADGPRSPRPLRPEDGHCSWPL
Binder,MFI at 0.1 nM [4] [MFI],MFI at 1 nM [4] [MFI],MFI at 10 nM [4] [MFI],MFI at 100 nM [4] [MFI],MFI at 0.0316 nM [4] [MFI],MFI at 0.316 nM [4] [MFI],MFI at 3.16 nM [4] [MFI],MFI at 31.6 nM [4] [MFI],other results
B1,23.4,156,773,944,–,–,–,–,"IFN-γ release, mixed lymphocyte reaction (PBMC donor-2), antibody 0.001 µg/mL [1]: 2090 pg/mL; IFN-γ release, mixed lymphocyte reaction (PBMC donor-2), antibody 0.01 µg/mL [1]: 2720 pg/mL; IFN-γ release, mixed lymphocyte reaction (PBMC donor-2), antibody 0.1 µg/mL [1]: 2630 pg/mL; IFN-γ release, mixed lymphocyte reaction (PBMC donor-2), antibody 1 µg/mL [1]: 2830 pg/mL; IFN-γ release, mixed lymphocyte reaction (PBMC donor-1), antibody 0.001 µg/mL [2]: 3010 pg/mL; IFN-γ release, mixed lymphocyte reaction (PBMC donor-1), antibody 0.01 µg/mL [2]: 5910 pg/mL; IFN-γ release, mixed lymphocyte reaction (PBMC donor-1), antibody 0.1 µg/mL [2]: 15300 pg/mL; IFN-γ release, mixed lymphocyte reaction (PBMC donor-1), antibody 1 µg/mL [2]: 15200 pg/mL; IL-2 release, mixed lymphocyte reaction (PBMC donor-2), antibody 0.001 µg/mL [3]: 30 pg/mL; IL-2 release, mixed lymphocyte reaction (PBMC donor-2), antibody 0.01 µg/mL [3]: 43.4 pg/mL; IL-2 release, mixed lymphocyte reaction (PBMC donor-2), antibody 0.1 µg/mL [3]: 74.2 pg/mL; IL-2 release, mixed lymphocyte reaction (PBMC donor-2), antibody 1 µg/mL [3]: 103 pg/mL; IL-2 release, mixed lymphocyte reaction (PBMC donor-1), antibody 0.001 µg/mL [5]: 33.1 pg/mL; IL-2 release, mixed lymphocyte reaction (PBMC donor-1), antibody 0.01 µg/mL [5]: 48.9 pg/mL; IL-2 release, mixed lymphocyte reaction (PBMC donor-1), antibody 0.1 µg/mL [5]: 106 pg/mL; IL-2 release, mixed lymphocyte reaction (PBMC donor-1), antibody 1 µg/mL [5]: 65.6 pg/mL"
B2,28.4,132,326,297,2.3,59.3,217,314,"IFN-γ release, mixed lymphocyte reaction (PBMC donor-2), antibody 0.001 µg/mL [1]: 1810 pg/mL; IFN-γ release, mixed lymphocyte reaction (PBMC donor-2), antibody 0.01 µg/mL [1]: 5520 pg/mL; IFN-γ release, mixed lymphocyte reaction (PBMC donor-2), antibody 0.1 µg/mL [1]: 12700 pg/mL; IFN-γ release, mixed lymphocyte reaction (PBMC donor-2), antibody 1 µg/mL [1]: 15900 pg/mL; IFN-γ release, mixed lymphocyte reaction (PBMC donor-1), antibody 0.001 µg/mL [2]: 2900 pg/mL; IFN-γ release, mixed lymphocyte reaction (PBMC donor-1), antibody 0.01 µg/mL [2]: 7530 pg/mL; IFN-γ release, mixed lymphocyte reaction (PBMC donor-1), antibody 0.1 µg/mL [2]: 12100 pg/mL; IFN-γ release, mixed lymphocyte reaction (PBMC donor-1), antibody 1 µg/mL [2]: 8110 pg/mL; IL-2 release, mixed lymphocyte reaction (PBMC donor-2), antibody 0.001 µg/mL [3]: 93.3 pg/mL; IL-2 release, mixed lymphocyte reaction (PBMC donor-2), antibody 0.01 µg/mL [3]: 145 pg/mL; IL-2 release, mixed lymphocyte reaction (PBMC donor-2), antibody 0.1 µg/mL [3]: 182 pg/mL; IL-2 release, mixed lymphocyte reaction (PBMC donor-2), antibody 1 µg/mL [3]: 194 pg/mL; IL-2 release, mixed lymphocyte reaction (PBMC donor-1), antibody 0.001 µg/mL [5]: 88.8 pg/mL; IL-2 release, mixed lymphocyte reaction (PBMC donor-1), antibody 0.01 µg/mL [5]: 131 pg/mL; IL-2 release, mixed lymphocyte reaction (PBMC donor-1), antibody 0.1 µg/mL [5]: 148 pg/mL; IL-2 release, mixed lymphocyte reaction (PBMC donor-1), antibody 1 µg/mL [5]: 140 pg/mL; Kd [6]: 32 pM; koff [6]: 1.3e-05 s⁻¹; kon [6]: 408000 M⁻¹ s⁻¹"
B3,13.7,46.3,174,150,2.2,25.8,89,151,Kd [6]: 45 pM; koff [6]: 9.64e-06 s⁻¹; kon [6]: 212000 M⁻¹ s⁻¹
B4,3.3,5.8,221,933,3.3,3.6,28,848,–
B5,3.1,5.1,156,944,2.9,3.1,23.4,773,–
B6,50.6,475,2120,2340,–,–,–,–,–
B7,–,–,–,–,–,–,–,–,MFI at 0.01 nM [7]: 2.8 MFI
